Laboratory results as given in US20140087995A1 (published 2014).
Numbered stars: 1 amine (or outer) side, 2 acyl side, 3 side chain; on linkers, the order of the positions; unused ones are H or OH. Bridge positions count the residues as written; N and C are the ends. Side chains are listed from the residue outwards. Ends that are not written are not given here. * marks the point of attachment. C20 diacid = O=C(O)CCCCCCCCCCCCCCCCCCC(=O)*; γGlu = O=C(O)[C@H](CCC(=O)[*:2])N[*:1]; AEEA = NCCOCCOCC(=O)O

What was measured:
[1] = molecular target: T1, human amylin receptor (amylin 3(a) receptor: human calcitonin receptor with RAMP-3) (human, UniProt P30988 25-474; O60896 24-148, limits assumed); assay: SPA competition binding on membranes of BHK cells with human calcitonin receptor + RAMP-3; displacement of 125I-rat amylin (Assay V)
T1 construct: whole, on cells; Whole cells in the luciferase assay (Assay II a); also called hAmylin-R; hAmylinR
T1 sequence (looked up) 1: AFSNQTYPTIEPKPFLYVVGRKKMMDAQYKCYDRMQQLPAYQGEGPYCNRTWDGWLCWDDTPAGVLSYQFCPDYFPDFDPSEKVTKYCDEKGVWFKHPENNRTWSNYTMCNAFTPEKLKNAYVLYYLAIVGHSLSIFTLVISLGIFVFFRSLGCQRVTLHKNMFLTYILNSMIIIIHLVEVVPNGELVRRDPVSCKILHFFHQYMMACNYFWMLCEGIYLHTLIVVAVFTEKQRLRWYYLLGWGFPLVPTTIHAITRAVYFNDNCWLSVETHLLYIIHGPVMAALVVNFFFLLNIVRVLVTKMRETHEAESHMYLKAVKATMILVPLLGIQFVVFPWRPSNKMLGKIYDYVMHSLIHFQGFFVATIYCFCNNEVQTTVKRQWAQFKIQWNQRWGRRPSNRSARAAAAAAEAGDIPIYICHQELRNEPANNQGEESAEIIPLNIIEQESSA
T1 sequence (looked up) 2: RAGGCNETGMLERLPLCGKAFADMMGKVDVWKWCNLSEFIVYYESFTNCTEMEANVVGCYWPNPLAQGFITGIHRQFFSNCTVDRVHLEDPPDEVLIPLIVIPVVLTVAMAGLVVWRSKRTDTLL
Experimental: The binding assay was performed using scintillation proximity assay (SPA) beads (RPNQ0001) from PerkinElmer and cell membranes from the Amylin 3(a)/CRE-luc cells (as described in Assay (II)) were used. Membranes were prepared in the following way; the cells were rinsed with PBS and incubated with Versene for approximately 5 min before harvesting. The cells were flushed with PBS and the cell-suspension was centrifuged for 5 min at 1000 rpm. Cells were homogenized (ultrathurrax) in a buffer containing 20 mM Na-HEPES and 10 mM EDTA (pH 7.4) and centrifuged at 20.000 rpm for 15 min. The resulting pellet was resuspended, homogenized and centrifuged (20.000 rpm, 15 min) in a buffer containing 20 mM Na-HEPES and 0.1 mM EDTA (pH 7.4, buffer 2). The resulting pellet was resuspended in buffer 2 and protein concentration was measured (BCA protein Assay, Pierce). The homogenate was kept cold during the whole procedure. The membranes were kept at −80° C. until use. The assay was performed in a 384 well Optiplate (PerkinElmer) in a total volume of 40 ul. Membranes were mixed with SPA beads. Final concentration of membranes 35 ng/μL final and SPA beads was 0.05 mg/well. Test-compounds were dissolved in DMSO and further diluted in assay buffer (50 mM Hepes, pH 7.4, 1 mM CaCl2, 5 mM MgCl₂, 0.1% OA and 0.02% Tween20). […] The final mixture was incubated with shaking at 400 rpm for 120 min at 25° C. prior to centrifugation (1500 rpm, 10 min). Samples were analyzed on TopCounter™ (Packard). The IC₅₀ was calculated using (one site binding competition analysis) GraphPad Prism5 as a measure of receptor affinity.

[2] = molecular target: T2, human calcitonin receptor (human, UniProt P30988 25-474); assay: cell-based or functional assay
T2 sequence (looked up): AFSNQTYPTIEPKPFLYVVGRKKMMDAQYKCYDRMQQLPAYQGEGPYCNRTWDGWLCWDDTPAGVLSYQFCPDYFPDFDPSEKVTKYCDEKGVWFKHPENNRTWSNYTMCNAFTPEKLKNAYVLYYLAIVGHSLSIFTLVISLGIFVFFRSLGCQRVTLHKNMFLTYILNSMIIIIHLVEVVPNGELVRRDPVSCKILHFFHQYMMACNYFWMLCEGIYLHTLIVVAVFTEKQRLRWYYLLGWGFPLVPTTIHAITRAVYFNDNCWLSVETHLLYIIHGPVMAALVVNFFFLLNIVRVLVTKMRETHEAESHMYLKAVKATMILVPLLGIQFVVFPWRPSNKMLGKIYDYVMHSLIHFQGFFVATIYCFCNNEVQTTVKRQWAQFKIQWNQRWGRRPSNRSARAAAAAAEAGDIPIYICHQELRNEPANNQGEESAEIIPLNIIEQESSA

Binder | IC50 [1] [nM] | hCTR funct. EC50 (pM) [2] [pM]
K([AEEA-γGlu-C20 diacid])CNTATCATQRLANFLRHSSPNFGAIPSSTNVGSRTY-NH2 (disulfide 2-7; N-terminus assumed; SMILES CC[C@H](C)[C@H](NC(=O)[C@H](C)NC(=O)CNC(=O)[C@H](Cc1ccccc1)NC(=O)[C@H](CC(N)=O)NC(=O)[C@@H]1CCCN1C(=O)[C@H](CO)NC(=O)[C@H](CO)NC(=O)[C@H](Cc1c[nH]cn1)NC(=O)[C@H](CCCNC(=N)N)NC(=O)[C@H](CC(C)C)NC(=O)[C@H](Cc1ccccc1)NC(=O)[C@H](CC(N)=O)NC(=O)[C@H](C)NC(=O)[C@H](CC(C)C)NC(=O)[C@H](CCCNC(=N)N)NC(=O)[C@H](CCC(N)=O)NC(=O)[C@@H](NC(=O)[C@H](C)NC(=O)[C@@H]1CSSC[C@H](NC(=O)[C@@H](N)CCCCNC(=O)COCCOCCNC(=O)CC[C@H](NC(=O)CCCCCCCCCCCCCCCCCCC(=O)O)C(=O)O)C(=O)N[C@@H](CC(N)=O)C(=O)N[C@@H]([C@@H](C)O)C(=O)N[C@@H](C)C(=O)N[C@@H]([C@@H](C)O)C(=O)N1)[C@@H](C)O)C(=O)N1CCC[C@H]1C(=O)N[C@@H](CO)C(=O)N[C@@H](CO)C(=O)N[C@H](C(=O)N[C@@H](CC(N)=O)C(=O)N[C@H](C(=O)NCC(=O)N[C@@H](CO)C(=O)N[C@@H](CCCNC(=N)N)C(=O)N[C@H](C(=O)N[C@@H](Cc1ccc(O)cc1)C(N)=O)[C@@H](C)O)C(C)C)[C@@H](C)O, also called compound 38) | 0.249 | –
K([γGlu-γGlu-C20 diacid])CNTATCATQRLAEFLRHSSPNFGAIPSSTNVGPETY-NH2 (disulfide 2-7; N-terminus assumed; SMILES CC[C@H](C)[C@H](NC(=O)[C@H](C)NC(=O)CNC(=O)[C@H](Cc1ccccc1)NC(=O)[C@H](CC(N)=O)NC(=O)[C@@H]1CCCN1C(=O)[C@H](CO)NC(=O)[C@H](CO)NC(=O)[C@H](Cc1c[nH]cn1)NC(=O)[C@H](CCCNC(=N)N)NC(=O)[C@H](CC(C)C)NC(=O)[C@H](Cc1ccccc1)NC(=O)[C@H](CCC(=O)O)NC(=O)[C@H](C)NC(=O)[C@H](CC(C)C)NC(=O)[C@H](CCCNC(=N)N)NC(=O)[C@H](CCC(N)=O)NC(=O)[C@@H](NC(=O)[C@H](C)NC(=O)[C@@H]1CSSC[C@H](NC(=O)[C@@H](N)CCCCNC(=O)CC[C@H](NC(=O)CC[C@H](NC(=O)CCCCCCCCCCCCCCCCCCC(=O)O)C(=O)O)C(=O)O)C(=O)N[C@@H](CC(N)=O)C(=O)N[C@@H]([C@@H](C)O)C(=O)N[C@@H](C)C(=O)N[C@@H]([C@@H](C)O)C(=O)N1)[C@@H](C)O)C(=O)N1CCC[C@H]1C(=O)N[C@@H](CO)C(=O)N[C@@H](CO)C(=O)N[C@H](C(=O)N[C@@H](CC(N)=O)C(=O)N[C@H](C(=O)NCC(=O)N1CCC[C@H]1C(=O)N[C@@H](CCC(=O)O)C(=O)N[C@H](C(=O)N[C@@H](Cc1ccc(O)cc1)C(N)=O)[C@@H](C)O)C(C)C)[C@@H](C)O, synthetic peptide amide) | – | 2360
